Data reported in US20260365696A1, “INHIBITORS OF PTP1B / NCK1 INTERACTION AND METHODS OF MAKING AND USING SAME” (Radella Pharmaceuticals LLC, priority 2023, published 2026).
Where two headings read alike, the source gives them in different places.

T1: NCK1 SH3-2 domain (human)
T1 chain: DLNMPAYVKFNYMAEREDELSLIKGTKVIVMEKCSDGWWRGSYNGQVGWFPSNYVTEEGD


How the values were obtained:
Assay in all cases: ITC
[1] = target: T1, NCK1 SH3-2 domain
[2] = target: T1, NCK1 SH3-2 domain
[3] = target: T1, NCK1 SH3-2 domain
[4] = target: T1, NCK1 SH3-2 domain

Row | Binder | Kd [1] [µM] | Kd [3] [µM] | also measured
1 | Ac-PPYPPKR-NH2 [MH120] | < 300 | – | –
2 | Ac-PPGPPKR-NH2 [MH092] | > 600 | – | –
3 | Ac-PPRPPKRW-NH2 [MH154] | – | – | Kd [2]: < 300 µM
4 | Ac-PPHPPKR-NH2 [MH057] | < 300 | – | –
5 | Ac-PPRPPKRK-NH2 [MH148] | – | – | Kd [2]: < 300 µM
6 | Ac-PPMPPKR-NH2 [MH110] | < 300 | – | –
7 | Ac-PPRPPKRP-NH2 [MH151] | – | – | Kd [2]: < 600 µM
8 | Ac-PPKPPKR-NH2 [MH055] | < 300 | – | –
9 | Ac-PPPEHIPPPPRPPKA-NH2 [MH007] | – | > 1000 | –
10 | Ac-PPVPPKR-NH2 [MH124] | < 300 | – | –
11 | Ac-PPPEHIPAPPRPPKR-NH2 [MSJ019] | – | < 300 | –
12 | Ac-PPRPPKRA-NH2 [MH138] | – | – | Kd [2]: < 300 µM
13 | Ac-PPCPPKR-NH2 [MH061] | < 300 | – | –
14 | Ac-PPRPPKRM-NH2 [MH149] | – | – | Kd [2]: < 300 µM
15 | Ac-PPDPPKR-NH2 [MH084] | < 300 | – | –
16 | Ac-PPRPPKRS-NH2 [MH152] | – | – | Kd [2]: < 300 µM
17 | Ac-PPPEHAPPPPRPPKR-NH2 [MSJ017] | – | < 300 | –
18 | Ac-PPSPPKR-NH2 [MH059] | < 300 | – | –
19 | Ac-PPRPPKRN-NH2 [MH140] | – | – | Kd [2]: < 300 µM
20 | Ac-PPRPPKRC-NH2 [MH142] | – | – | Kd [2]: < 300 µM
21 | Ac-PPRPPKRL-NH2 [MH147] | – | – | Kd [2]: < 300 µM
22 | Ac-PPPEHIPPPARPPKR-NH2 [MH002] | – | > 1000 | –
23 | Ac-PPPEHIPPPPRPPAR-NH2 [MH006] | – | < 300 | –
24 | Ac-PPRPPKRD-NH2 [MH141] | – | – | Kd [2]: < 300 µM
25 | Ac-PPRPPKRF-NH2 [MH150] | – | – | Kd [2]: < 300 µM
26 | Ac-PPQPPKR-NH2 [MH087] | < 300 | – | –

Row | Binder | Kd [1] [µM] | Kd [3] [µM] | also measured
27 | Ac-PPPEHIAPPPRPPKR-NH2 [MSJ018] | – | < 300 | –
28 | Ac-PPPPPKR-NH2 [MH106] | < 300 | – | –
29 | Ac-PPPEHIPPPPAPPKR-NH2 [MH003] | – | < 300 | –
30 | Ac-PPRPPKRH-NH2 [MH146] | – | – | Kd [2]: < 300 µM
31 | Ac-PPRPPKRG-NH2 [MH145] | – | – | Kd [2]: < 300 µM
32 | Ac-PAPEHIPPPPRPPKR-NH2 [MSJ013] | – | < 300 | –
33 | Ac-PPIPPKR-NH2 [MH096] | < 300 | – | –
34 | Ac-PPPEHIPPPPRPAKR-NH2 [MH005] | – | > 1000 | –
35 | Ac-PPEPPKR-NH2 [MH058] | < 300 | – | –
36 | Ac-PPRPPKRY-NH2 [MH155] | – | – | Kd [2]: < 300 µM
37 | Ac-PPPEAIPPPPRPPKR-NH2 [MSJ016] | – | < 300 | –
38 | Ac-PPWPPKR-NH2 [MH056] | < 600 | – | –
39 | Ac-PPFPPKR-NH2 [MH066] | < 300 | – | –
40 | Ac-PPAEHIPPPPRPPKR-NH2 [MSJ014] | – | < 300 | –
41 | Ac-PPRPPNR-NH2 [MH053] | – | – | Kd [4]: < 300 µM
42 | Ac-PPPAHIPPPPRPPKR-NH2 [MSJ015] | – | < 300 | –
43 | Ac-PPTPPKR-NH2 [MH114] | < 300 | – | –
44 | Ac-PPLPPKR-NH2 [MH100] | < 300 | – | –
45 | Ac-PPPEHIPPAPRPPKR-NH2 [MH001] | – | < 300 | –
46 | Ac-PPRPPKRR-NH2 [MH139] | – | – | Kd [2]: < 300 µM
47 | Ac-PPPEHIPPPPRAPKR-NH2 [MH004] | – | < 300 | –
48 | Ac-PPRPPIR-NH2 [MH098] | – | – | Kd [4]: < 300 µM
49 | Ac-PPNPPKR-NH2 [MH060] | < 300 | – | –
50 | Ac-APPEHIPPPPRPPKR-NH2 [MSJ012] | – | < 300 | –
51 | Ac-PPPEHIPPPPRPPKR-NH2 [MD17] | – | < 300 | –
